Measurements taken from article PMC9831982 (Nature Communications, 2023).

Target: T1, Slh1 (from SLH1-FTP, released by TEV protease) as imaged by HS-AFM (S. cerevisiae, UniProt P53327 1-1967)
T1 construct: Slh1 (RQT2), S. cerevisiae; The methods describe this purification for the wild-type and the double-mutant trimer; not shown: protein A (behind a TEV site), C-terminal, cleaved
Assay: HS-AFM; purified complex (5 nM) on mica in RQT-AFM buffer (50 mM Tris pH 7.5, 100 mM NaCl, 10 mM MgCl2, 100 mM L-arginine, 10 µM ZnCl2), room temperature
Conditions: both partners purified

T1 sequence (P53327 whole entry): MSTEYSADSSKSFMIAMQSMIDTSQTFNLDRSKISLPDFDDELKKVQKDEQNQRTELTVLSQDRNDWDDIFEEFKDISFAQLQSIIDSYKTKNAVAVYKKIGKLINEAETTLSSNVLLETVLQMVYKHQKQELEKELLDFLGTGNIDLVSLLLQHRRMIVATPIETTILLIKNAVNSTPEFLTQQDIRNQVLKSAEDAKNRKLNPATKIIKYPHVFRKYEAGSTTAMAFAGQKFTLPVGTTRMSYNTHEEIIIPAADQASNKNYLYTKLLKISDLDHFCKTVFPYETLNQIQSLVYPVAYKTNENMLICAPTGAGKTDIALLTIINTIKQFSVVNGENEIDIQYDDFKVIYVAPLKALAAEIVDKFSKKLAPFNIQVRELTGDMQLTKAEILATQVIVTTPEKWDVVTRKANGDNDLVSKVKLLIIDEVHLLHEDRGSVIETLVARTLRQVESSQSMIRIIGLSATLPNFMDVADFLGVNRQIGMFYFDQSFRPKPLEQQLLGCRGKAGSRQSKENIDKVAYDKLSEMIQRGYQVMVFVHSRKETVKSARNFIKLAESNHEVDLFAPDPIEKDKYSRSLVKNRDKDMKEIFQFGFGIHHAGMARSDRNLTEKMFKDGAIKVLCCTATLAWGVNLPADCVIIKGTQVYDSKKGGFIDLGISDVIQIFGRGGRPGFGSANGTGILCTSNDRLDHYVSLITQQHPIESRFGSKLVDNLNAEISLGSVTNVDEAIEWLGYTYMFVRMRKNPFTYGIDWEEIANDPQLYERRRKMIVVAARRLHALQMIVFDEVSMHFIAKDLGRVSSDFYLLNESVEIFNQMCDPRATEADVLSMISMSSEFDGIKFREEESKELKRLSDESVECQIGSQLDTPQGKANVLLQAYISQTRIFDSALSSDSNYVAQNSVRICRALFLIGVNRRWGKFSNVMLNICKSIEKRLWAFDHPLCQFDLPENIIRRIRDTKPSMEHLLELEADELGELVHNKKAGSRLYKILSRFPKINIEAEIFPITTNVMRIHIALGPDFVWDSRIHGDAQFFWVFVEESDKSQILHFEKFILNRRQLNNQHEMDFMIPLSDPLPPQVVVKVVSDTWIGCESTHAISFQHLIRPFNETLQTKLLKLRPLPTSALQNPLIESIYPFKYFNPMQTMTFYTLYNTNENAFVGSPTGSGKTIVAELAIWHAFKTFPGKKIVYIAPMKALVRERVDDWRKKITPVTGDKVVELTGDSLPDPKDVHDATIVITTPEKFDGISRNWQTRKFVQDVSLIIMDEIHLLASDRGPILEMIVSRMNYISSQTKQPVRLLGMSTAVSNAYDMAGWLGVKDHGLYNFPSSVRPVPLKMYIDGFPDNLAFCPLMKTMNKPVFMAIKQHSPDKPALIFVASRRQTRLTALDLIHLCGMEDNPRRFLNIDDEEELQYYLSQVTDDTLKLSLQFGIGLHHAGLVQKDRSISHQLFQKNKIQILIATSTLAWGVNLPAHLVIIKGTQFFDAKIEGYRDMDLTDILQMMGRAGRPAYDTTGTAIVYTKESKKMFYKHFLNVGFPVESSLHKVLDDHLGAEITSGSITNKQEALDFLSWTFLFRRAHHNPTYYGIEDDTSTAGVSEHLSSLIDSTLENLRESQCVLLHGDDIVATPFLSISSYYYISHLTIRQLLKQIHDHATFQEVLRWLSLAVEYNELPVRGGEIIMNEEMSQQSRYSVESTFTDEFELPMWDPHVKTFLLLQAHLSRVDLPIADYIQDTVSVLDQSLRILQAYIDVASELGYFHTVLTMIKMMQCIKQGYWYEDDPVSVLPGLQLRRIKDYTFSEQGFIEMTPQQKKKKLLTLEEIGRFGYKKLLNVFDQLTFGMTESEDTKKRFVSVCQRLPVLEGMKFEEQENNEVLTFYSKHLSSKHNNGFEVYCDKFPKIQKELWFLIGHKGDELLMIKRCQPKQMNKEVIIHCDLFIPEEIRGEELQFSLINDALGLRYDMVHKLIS

Row | Binder | binding result
1 | Cue3 as imaged by HS-AFM in the Slh1/Cue3 complex (natural protein, S. cerevisiae, UniProt P53137 1-624, looked up, Cue3 (RQT3), S. cerevisiae) MLSRYNRVIEINGGNADISLPIVKFPPFKLRAQLIEKDPVVWLHLIETYVTYFEYLMQGANVELLDESTLDHLRLFLRTYLHEIADEEGKLLSLGINHDVSEQLYLLKGWIFSLIKKCGLLHLQIFGDSLWNLIKVYVRRNPDSIRGLIDGSLKPRINTQRVQLDKSYQVQQHLKQLIESGKFKRIDLRCVEDLLSAKSMQPNKFAENFFTANWIEILEALWAKGQGRGHKEARELIIISLFSVSADRLLKITKELGISNFETLALYPLLGTMLINEGVHKRLPDLKSKLLFLNLGGLSMDEGDHMSYPTSSGTEVNEEQLSALMELFPQFSKYQLSQTLLAYDNNIELVTNKIFEDPTIIEAFSREPAEEEVEPVSDGDNASFTEELSILDRGDSSKNKELDKKIISEGVPDELRNKTLTRALKLLYEADEDERDDTYDEADVNRSDPSKRIGLQEDEESYDTKDDSNEVRQDHNYHIVEAYLWNLLKEDPKLFERSKRGTKVRKTMKEMTSWSDEKIEGWCRMLERSPTRARLLEKKFMFKGNSKTGKTSYVHNRDSQNDGNVVKEQAKQKKSENIKKHEPQSTEQKKRQHAKNEKRKGARANHNRKKGHDKKLARAGNNAI | binds
2 | Rqt4 as imaged by HS-AFM in the Slh1/Rqt4 complex (natural protein, S. cerevisiae, UniProt P36119 1-530, looked up, Rqt4, S. cerevisiae) MTRKQAIDYAIKQVPQILPLEESDVKALCEQVLSTSSDDPEQIASKFLEFLGHEDLSFEFVMKFNELLNQNDKKEEKKTKNVHLEHTAPTSWKNESKQPTNNYINKKGDEKPKKLKDEKKSSTTRPTVQPSNQSTQSNPIKEKKEHRSKGKLQSLQEIDEAIKMLELRDSGSSKNCNCQGTRHPVFDIAPNCLHCGKVVCVIEGLNKGKCGHCHEQLISDNERTQMVEILNQEKNELNGSSSSLSNASNGANVPKKKTKTYKITSGMGKNLFAEQDKLFDFIERKRERERKRNEVLKLQEEKEESEAKERQASEHDHKAEENPELLAAQERLDRLLYFQDTSAERTKIIDNASDFDMNQEVGLWGSARERALALKKQQRNLRKWEKVEKERNGRREKYVVSMNIGSNGKVTMTEVPKDTENVIAGSDDDISDISDEEDISDLKHIHALKSEINTTKSLENLHLQSKAWDYERDKKQFDRPTYVKKNSDTAQQNRKTEEKAHDMQAYDLKSRVQVDQNADASVEQNILAVL | binds
